Assay results taken from article PMC6454399, “A Parsimonious Mechanism of Sugar Dehydration by Human GDP-Mannose-4,6-dehydratase” (ACS Catalysis, 2019).

T1: human GDP-mannose 4,6-dehydratase (hGMD) (Homo sapiens, UniProt O60547, E157Q)
T1 construct: gene GMDS; purified enzyme, wild type and point variants; homodimer in crystals (two to four homodimers per asymmetric unit); construct borders, tags and host only in supplement
T1 sequence (O60547 2-372 E157Q limits assumed): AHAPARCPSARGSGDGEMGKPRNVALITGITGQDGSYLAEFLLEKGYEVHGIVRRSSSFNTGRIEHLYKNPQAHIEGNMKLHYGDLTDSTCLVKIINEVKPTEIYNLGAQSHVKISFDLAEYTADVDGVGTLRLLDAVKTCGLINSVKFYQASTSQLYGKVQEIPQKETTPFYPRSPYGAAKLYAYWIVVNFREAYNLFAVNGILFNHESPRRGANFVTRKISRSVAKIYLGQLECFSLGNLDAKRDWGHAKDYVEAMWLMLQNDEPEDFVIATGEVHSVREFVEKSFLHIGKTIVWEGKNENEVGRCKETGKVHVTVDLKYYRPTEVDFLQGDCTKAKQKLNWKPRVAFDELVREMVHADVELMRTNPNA

T2: human GDP-mannose 4,6-dehydratase (hGMD) (Homo sapiens, UniProt O60547)
T2 construct: gene GMDS; purified enzyme, wild type and point variants; homodimer in crystals (two to four homodimers per asymmetric unit); construct borders, tags and host only in supplement
T2 sequence (O60547 2-372 limits assumed): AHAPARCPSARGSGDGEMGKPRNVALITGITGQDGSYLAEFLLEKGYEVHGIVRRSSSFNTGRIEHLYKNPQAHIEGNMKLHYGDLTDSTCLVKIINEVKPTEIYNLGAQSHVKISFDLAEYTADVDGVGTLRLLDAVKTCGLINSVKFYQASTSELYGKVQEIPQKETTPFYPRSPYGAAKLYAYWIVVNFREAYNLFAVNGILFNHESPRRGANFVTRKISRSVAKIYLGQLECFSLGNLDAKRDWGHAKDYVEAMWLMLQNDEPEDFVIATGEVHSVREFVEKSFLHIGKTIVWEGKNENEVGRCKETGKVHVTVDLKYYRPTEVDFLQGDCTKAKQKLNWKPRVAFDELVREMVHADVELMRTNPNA


Columns and labels:
[1] = biological target: T1, human GDP-mannose 4,6-dehydratase (hGMD); assay: X-ray crystal structure, […] Å; conditions: GDP-mannose also bound; NADP+ binding site
[2] = biological target: T2, human GDP-mannose 4,6-dehydratase (hGMD); assay: isothermal titration calorimetry; assay type: binding
[3] = substrate: Nc1nc2c(ncn2[C@@H]2O[C@H](COP(=O)(O)OP(=O)(O)O[C@H]3O[C@H](CO)[C@@H](O)[C@H](O)[C@@H]3O)[C@@H](O)[C@H]2O)c(=O)[nH]1; assay: initial rate measurements; assay type: biochemical, Homo sapiens; conditions: 37 °C
Text: initial rate measurements on human GDP-mannose 4,6-dehydratase (hGMD)

Molecule	X-ray crystal structure, 1.47 Å [1]	Kd [2] [µM]	Km [3] [µM]	kcat [3] [s⁻¹]
NC(=O)c1ccc[n+]([C@@H]2O[C@H](COP(=O)(O)OP(=O)(O)OC[C@H]3O[C@@H](n4cnc5c(N)ncnc54)[C@H](OP(=O)(O)O)[C@@H]3O)[C@@H](O)[C@H]2O)c1 [NADP^+]	each monomer has bound GDP-mannose (purple) and NADP^+ (yellow)			
Nc1nc2c(ncn2[C@@H]2O[C@H](COP(=O)(O)OP(=O)(O)O[C@H]3O[C@H](CO)[C@@H](F)[C@H](O)[C@@H]3O)[C@@H](O)[C@H]2O)c(=O)[nH]1 [GDP-4″-deoxy-4″-fluoro-mannose]		1.6		
human GDP-mannose 4,6-dehydratase (hGMD) (Homo sapiens) (protein, purified enzyme, wild type and point variants; homodimer in crystals (two to four homodimers per asymmetric unit); construct borders, tags and host only in supplement) AHAPARCPSARGSGDGEMGKPRNVALITGITGQDGSYLAEFLLEKGYEVHGIVRRSSSFNTGRIEHLYKNPQAHIEGNMKLHYGDLTDSTCLVKIINEVKPTEIYNLGAQSHVKISFDLAEYTADVDGVGTLRLLDAVKTCGLINSVKFYQASTSELYGKVQEIPQKETTPFYPRSPYGAAKLYAYWIVVNFREAYNLFAVNGILFNHESPRRGANFVTRKISRSVAKIYLGQLECFSLGNLDAKRDWGHAKDYVEAMWLMLQNDEPEDFVIATGEVHSVREFVEKSFLHIGKTIVWEGKNENEVGRCKETGKVHVTVDLKYYRPTEVDFLQGDCTKAKQKLNWKPRVAFDELVREMVHADVELMRTNPNA			8 ± 1	0.42 ± 0.08
human GDP-mannose 4,6-dehydratase (hGMD) (Homo sapiens; S156A) (protein, purified enzyme, wild type and point variants; homodimer in crystals (two to four homodimers per asymmetric unit); construct borders, tags and host only in supplement) AHAPARCPSARGSGDGEMGKPRNVALITGITGQDGSYLAEFLLEKGYEVHGIVRRSSSFNTGRIEHLYKNPQAHIEGNMKLHYGDLTDSTCLVKIINEVKPTEIYNLGAQSHVKISFDLAEYTADVDGVGTLRLLDAVKTCGLINSVKFYQASTAELYGKVQEIPQKETTPFYPRSPYGAAKLYAYWIVVNFREAYNLFAVNGILFNHESPRRGANFVTRKISRSVAKIYLGQLECFSLGNLDAKRDWGHAKDYVEAMWLMLQNDEPEDFVIATGEVHSVREFVEKSFLHIGKTIVWEGKNENEVGRCKETGKVHVTVDLKYYRPTEVDFLQGDCTKAKQKLNWKPRVAFDELVREMVHADVELMRTNPNA			127 ± 5	0.05 ± 0.01
